Measured values from patent EP4711453A1, “PHENYLALANINE LYASE MUTANT, AND CONJUGATE THEREOF OR PHARMACEUTICALLY ACCEPTABLE SALT THEREOF” (Peg-Bio Biopharm Co., Ltd. (Chongqing), priority 2023, dated 2024).
Several values for one entry are separate records, joined by “and”; a condition that tells them apart may be missing. Equal values may be shown once.

Test: Serum drug concentration after a single administration in phenylketonuria model mice (sandwich ELISA)
Format: in vivo
Parameters: Blood drug concentration in serum: unit not given here
Conditions: Pah^enu mice
From the text: Phenylalanine hydroxylase (PAH) was central to phenylalanine metabolism in animals, catalyzing the conversion of phenylalanine to tyrosine. Deficiency of this gene underlies phenylketonuria. […] Therefore, the homozygous mouse carrying the missense mutation F263S can be used as an animal model for phenylketonuria (referred to as the Pah^enu mouse or model mouse) in this drug study.
To evaluate the polyethylene glycol conjugate PL54 of the site-saturation modified phenylalanine lyase mutant, six Pah^enu mice were assigned to three groups of two mice each. PL54-5 (average degree of modification 13.60, specific enzyme activity 1.27 U/mg) from Table 3 of Example 2 was administered to the phenylketonuria animal model mice at low, medium, and high doses of 0.5 mg/kg, 1.5 mg/kg, and 4.5 mg/kg, respectively, via subcutaneous injection. Blood samples were collected from mice in each group at 1 h before administration and at 1, 3, 5, 7, 10, and 14 days after administration, respectively, and the content of PL54-5 in serum was detected by sandwich ELISA (for details, see Example 5).

B1: PL54-5: polyethylene glycol conjugate of PAL4 (SEQ ID NO: 6) with PEG-SPA-5K, molar ratio 1:16, average degree of modification 13.60 (conjugate)
chain: MKTLSQAQSKTSSQQFSFTGNSSANVIIGNQKLTINDVARVARNGTLVSLTNNTDILQGIQASCDYINNAVKSGEPIYGVTSGFGGMANVAISREQASELQTNLVWFLKTGAGNKLPLADVRAAMLLRANSHMRGASGIRLELIKRMEIFLNAGVTPYVYEFGSIGASGDLVPLSYITGSLIGLDPSFKVDFNGKEMDAPTALRQLNLSPLTLLPKEGLAMMNGTSVMTGIAANCVYDTKILTAIAMGVHALDIQALNGTNQSFHPFIHNSKPHPGQLWAADQMISLLANSQLVRDELDGKHDYRDHELIQDRYSLRCLPQYLGPIVDGISQIAKQIEIEINSVTDNPLIDVDNQASYHGGNFLGQYVGMGMDHLRYYIGLLAKHLDVQIALLASPEFSNGLPPSLLGNRERKVNMGLKGLQICGNSIMPLLTFYGNSIADRFPTHAEQFNQNINSQGYTSATLARKSVDIFQNYVAIALMFGVQAVDLRTYKKTGHYDARASLSPATERLYSAVRHVVGQKPTSDRPYIWNDNEQGLDEHIAKISADIAAGGVIVQAVQDILPSLH
modifications: PEG-SPA-5K conjugate, ~13.6 PEG per molecule
- Blood drug concentration in serum (single 0.5 mg/kg s.c., 1-D1, dilution 1:500): 0.3
- Blood drug concentration in serum (single 0.5 mg/kg s.c., 1-D3, dilution 1:500): 2.4
- Blood drug concentration in serum (single 0.5 mg/kg s.c., 1-D5, dilution 1:500): 0.9
- Blood drug concentration in serum (single 0.5 mg/kg s.c., 1-D7, dilution 1:500): 0.2
- Blood drug concentration in serum (single 0.5 mg/kg s.c., 1-D10, dilution 1:500): 0.1
- Blood drug concentration in serum (single 0.5 mg/kg s.c., D0 (1 h before administration), dilution 1:50): 0
- Blood drug concentration in serum (single 1.5mg/kg s.c., 1-D1, dilution 1:500, 1.5 mg/kg): 0.5 and 0.6
- Blood drug concentration in serum (single 1.5mg/kg s.c., 1-D3, dilution 1:500, 1.5 mg/kg): 2.7 and 2.2
- Blood drug concentration in serum (single 1.5mg/kg s.c., 1-D5, dilution 1:500): 0.9
- Blood drug concentration in serum (single 1.5mg/kg s.c., 1-D7, dilution 1:500, 1.5 mg/kg): 0.4 and 0.3
- Blood drug concentration in serum (single 1.5mg/kg s.c., D0 (1 h before administration), dilution 1:50): 0
- Blood drug concentration in serum (single 4.5 mg/kg s.c., 1-D1, dilution 1:500, 4.5 mg/kg): 1.6 and 0.8
- Blood drug concentration in serum (single 4.5 mg/kg s.c., 1-D3, dilution 1:500, 4.5 mg/kg): 2.6 and 2.9
- Blood drug concentration in serum (single 4.5 mg/kg s.c., 1-D5, dilution 1:500, 4.5 mg/kg): 1.9 and 1.2
- Blood drug concentration in serum (single 4.5 mg/kg s.c., 1-D7, dilution 1:500, 4.5 mg/kg): 0.8 and 0.4
- Blood drug concentration in serum (single 4.5 mg/kg s.c., 1-D10, dilution 1:500): 0
- Blood drug concentration in serum (single 4.5 mg/kg s.c., 1-D14, dilution 1:500): 0.2
- Blood drug concentration in serum (single 4.5 mg/kg s.c., D0 (1 h before administration), dilution 1:50): 0
- plasma drug concentration in relation to the administration dose (single s.c. injection, 0.5, 1.5 and 4.5 mg/kg): directly proportional to the administration dose
